Data as given in the supplement of paper PMC9876800.

Tested on: peptide library, one residue held at a place counted from the S/T acceptor
Assay: relative phosphorylation of the sub-library (ratio to the mean residue at this position); higher = residue favoured
Procedure, shortened: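 Spots on streptavidin membranes were phosphorimaged and quantified by densitometry to measure phosphorylation of biotinylated degenerate peptide sub-libraries by purified recombinant kinases, human or orthologue constructs. The reactions ran in 384-well plates for 90 min under kinase-specific conditions, with peptides at 50 μM and 50 μM ATP spiked with γ-32P-ATP. Relative sub-library phosphorylation is the ratio to the mean residue at that position.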

CDK8, construct: Full length*, human, sequence (P49336 whole entry, looked up): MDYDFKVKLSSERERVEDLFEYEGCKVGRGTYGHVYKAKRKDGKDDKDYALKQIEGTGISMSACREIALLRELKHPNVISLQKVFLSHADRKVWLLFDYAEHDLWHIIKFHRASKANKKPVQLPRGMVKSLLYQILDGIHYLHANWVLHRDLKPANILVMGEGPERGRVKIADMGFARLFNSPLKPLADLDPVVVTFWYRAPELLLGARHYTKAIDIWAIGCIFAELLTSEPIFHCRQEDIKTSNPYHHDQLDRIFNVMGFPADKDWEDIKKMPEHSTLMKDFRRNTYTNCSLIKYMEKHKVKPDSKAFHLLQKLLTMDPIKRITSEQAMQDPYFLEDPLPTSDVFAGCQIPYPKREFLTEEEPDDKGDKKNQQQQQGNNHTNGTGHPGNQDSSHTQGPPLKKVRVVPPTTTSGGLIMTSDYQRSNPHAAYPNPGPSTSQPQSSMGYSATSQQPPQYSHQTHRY

CDK8, construct: Full length*, human (from UniProt P49336)
relative phosphorylation
Details	at +1	at +2	at +3	at +4	at -1	at -2	at -3	at -4	at -5
A fixed	0.287	1.26	1.05	1.01	1.02	1.65	1.08	0.959	0.86
D fixed	0.179	0.789	0.841	1.19	0.791	0.579	0.887	1.18	1.4
E fixed	0.16	0.729	0.743	0.882	0.556	0.602	0.934	1.21	1.32
F fixed	0.26	0.84	0.734	0.893	1.03	0.43	1.04	1.1	1.33
G fixed	0.807	1.31	1.47	1.15	1.47	0.849	1.29	0.931	0.883
H fixed	0.408	1.03	1.12	1.06	0.982	0.643	0.947	1.08	1.01
I fixed	0.463	0.891	0.735	1.04	0.286	1.06	0.684	0.944	0.864
K fixed	0.239	1.11	0.649	0.698	1.03	0.309	0.592	0.842	0.747
L fixed	0.291	1.02	0.694	0.949	1.04	0.936	0.683	0.91	0.911
M fixed	0.36	1.12	1.02	0.955	1.44	1.05	1.48	1.05	0.78
N fixed	0.51	0.899	1.39	0.862	0.866	0.697	1.25	0.836	0.887
P fixed	10.9	0.801	1.91	1.09	1.37	4.62	1.23	0.923	0.896
Q fixed	0.369	1.13	1.03	0.977	1.02	0.876	1.16	0.941	0.917
R fixed	0.231	1.26	0.878	0.847	1.28	0.413	0.631	0.829	0.858
V fixed	1	0.807	0.977	1.09	0.559	1.31	0.698	0.847	0.813
W fixed	0.306	1.02	0.802	1.38	1.19	0.505	1.31	1.21	0.872
Y fixed	0.241	0.976	0.942	0.926	1.07	0.466	1.09	1.21	1.65
pThr fixed	0.423	0.473	0.694	0.882	0.312	0.668	0.74	1.11	0.898
pTyr fixed	0.43	0.934	0.886	0.851	0.758	0.614	0.745	1.13	1.11
